This experiment deals with human plasma fibronectin (human). The experiment is described as follows: ELISA; whole-cell ELISA; 1 ug human plasma Fn coated on Maxisorp wells, blocked with 2% BSA; ca. 2.5 x 10^7 washed bacteria added for 2 h at 37°C; attached bacteria detected with anti-B. henselae IgG, absorbance at 450 nm; triplicate. In general terms: In an ELISA, binding on a coated surface is turned into a signal by an enzyme label.

This note sets out measurements from article PMC9602544.

human plasma fibronectin (human), sequence (P02751 32-2477): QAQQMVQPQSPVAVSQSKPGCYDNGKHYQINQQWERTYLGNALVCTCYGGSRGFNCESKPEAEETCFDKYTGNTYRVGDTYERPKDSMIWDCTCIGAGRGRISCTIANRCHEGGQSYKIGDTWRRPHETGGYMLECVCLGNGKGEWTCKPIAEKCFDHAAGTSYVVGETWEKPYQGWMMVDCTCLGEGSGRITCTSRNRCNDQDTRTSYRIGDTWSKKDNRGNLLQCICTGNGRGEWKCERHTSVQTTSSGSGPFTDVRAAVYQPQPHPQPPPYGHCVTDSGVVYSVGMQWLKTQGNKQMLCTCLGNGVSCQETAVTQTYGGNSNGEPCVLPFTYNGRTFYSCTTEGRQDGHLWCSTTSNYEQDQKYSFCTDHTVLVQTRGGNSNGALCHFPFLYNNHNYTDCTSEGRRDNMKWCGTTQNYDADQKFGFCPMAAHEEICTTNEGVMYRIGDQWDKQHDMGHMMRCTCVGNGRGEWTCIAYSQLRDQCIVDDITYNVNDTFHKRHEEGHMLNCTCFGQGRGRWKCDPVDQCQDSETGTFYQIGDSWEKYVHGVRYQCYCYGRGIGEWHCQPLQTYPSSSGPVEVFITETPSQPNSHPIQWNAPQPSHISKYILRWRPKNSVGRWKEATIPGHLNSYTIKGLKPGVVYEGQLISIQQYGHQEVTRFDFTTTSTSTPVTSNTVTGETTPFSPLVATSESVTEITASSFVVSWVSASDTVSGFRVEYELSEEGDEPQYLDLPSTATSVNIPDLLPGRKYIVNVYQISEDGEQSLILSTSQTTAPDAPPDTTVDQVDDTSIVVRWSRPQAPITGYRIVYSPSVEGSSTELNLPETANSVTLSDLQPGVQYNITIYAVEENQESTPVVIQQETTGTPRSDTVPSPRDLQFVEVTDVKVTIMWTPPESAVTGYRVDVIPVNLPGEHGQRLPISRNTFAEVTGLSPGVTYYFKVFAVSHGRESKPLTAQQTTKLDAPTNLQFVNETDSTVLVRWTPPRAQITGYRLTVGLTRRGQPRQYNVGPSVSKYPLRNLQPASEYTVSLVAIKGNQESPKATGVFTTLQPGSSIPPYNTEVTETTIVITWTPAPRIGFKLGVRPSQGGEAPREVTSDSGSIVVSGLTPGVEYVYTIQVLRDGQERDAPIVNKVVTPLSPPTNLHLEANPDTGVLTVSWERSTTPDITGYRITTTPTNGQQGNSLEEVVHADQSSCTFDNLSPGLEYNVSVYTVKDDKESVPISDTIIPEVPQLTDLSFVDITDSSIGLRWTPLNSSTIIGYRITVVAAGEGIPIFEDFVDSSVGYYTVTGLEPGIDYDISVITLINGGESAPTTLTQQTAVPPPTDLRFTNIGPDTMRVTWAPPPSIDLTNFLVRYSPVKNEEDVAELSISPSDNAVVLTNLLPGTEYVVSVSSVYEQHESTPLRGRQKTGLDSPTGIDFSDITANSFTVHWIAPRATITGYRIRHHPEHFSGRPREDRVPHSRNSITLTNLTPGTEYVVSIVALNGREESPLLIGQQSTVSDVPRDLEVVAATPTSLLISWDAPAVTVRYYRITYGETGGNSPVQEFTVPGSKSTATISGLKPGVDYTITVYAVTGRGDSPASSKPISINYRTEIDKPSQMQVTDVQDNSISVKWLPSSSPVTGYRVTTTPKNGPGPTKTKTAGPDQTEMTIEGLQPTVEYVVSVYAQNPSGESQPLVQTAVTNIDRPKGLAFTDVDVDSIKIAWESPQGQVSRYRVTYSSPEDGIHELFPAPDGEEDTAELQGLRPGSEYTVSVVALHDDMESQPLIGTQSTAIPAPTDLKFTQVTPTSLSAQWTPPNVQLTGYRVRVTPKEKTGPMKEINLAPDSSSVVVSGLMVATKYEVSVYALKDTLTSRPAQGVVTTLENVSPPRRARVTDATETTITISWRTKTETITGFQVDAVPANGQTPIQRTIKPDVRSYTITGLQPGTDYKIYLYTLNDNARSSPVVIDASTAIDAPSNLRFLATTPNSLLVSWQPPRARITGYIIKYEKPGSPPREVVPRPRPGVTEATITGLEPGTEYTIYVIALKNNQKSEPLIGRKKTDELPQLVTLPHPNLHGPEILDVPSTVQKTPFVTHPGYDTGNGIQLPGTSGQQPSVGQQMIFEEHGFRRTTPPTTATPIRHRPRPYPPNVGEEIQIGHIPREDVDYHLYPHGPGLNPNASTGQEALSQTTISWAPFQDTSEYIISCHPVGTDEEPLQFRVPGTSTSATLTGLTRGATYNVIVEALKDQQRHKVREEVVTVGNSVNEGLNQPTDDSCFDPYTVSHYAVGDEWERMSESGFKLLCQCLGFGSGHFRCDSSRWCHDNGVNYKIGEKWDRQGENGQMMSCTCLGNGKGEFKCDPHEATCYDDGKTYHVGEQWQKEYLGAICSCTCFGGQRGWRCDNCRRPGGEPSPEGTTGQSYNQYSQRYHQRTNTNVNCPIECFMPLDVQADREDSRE

The substance “Bartonella adhesin A (BadA) of B. henselae Marseille, wild type (from UniProt Q5MWV9 48-3082) (natural protein)” yielded an absorbance at 450 nm, whole-cell ELISA of 0.908.
